For test [1], the target named is T1, recombinant human M-CSF (human, UniProt P09603 33-190, limits assumed).
T1 sequence: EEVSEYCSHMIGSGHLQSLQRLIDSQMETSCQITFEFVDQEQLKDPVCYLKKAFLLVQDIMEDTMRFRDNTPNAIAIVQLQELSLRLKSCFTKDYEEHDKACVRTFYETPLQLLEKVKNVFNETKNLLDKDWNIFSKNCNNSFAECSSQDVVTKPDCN
As to the kind of experiment: cell-based or functional assay.

The target of test [2] is T1, recombinant human M-CSF. As to the kind of experiment: SPR (Biacore), M-CSF amine-coupled on CM5 chip, antibody flowed. The procedure:
(§1) To determine the relative differences in the binding affinity of intact antibodies by Biacore analysis, M-CSF was immobilized onto CMS biosensor chip via amine coupling. 0.05 μg/ml M-CSF in 10 mM Na-Acetate pH 4.0 was injected at 1 μl/min for 5 minutes to achieve RL=6-12 RU. Test antibody or Fab fragments were flowed over the modified biosensor surface at varying concentrations ranging from 100 nM to 1.5 nM in 2-fold dilutions. Test antibodies were diluted in 0.01 M HEPES pH 7.4, 0.15 M NaCL, 3 mM EDTA, 0.005% Surfactant P20 (HBS-EP) and all experiments were done at 25° C. Each concentration point and buffer blanks were run in triplicate, and data was collected over 3 minutes of association and 8 minutes of dissociation. Kinetic and affinity constants were determined using Biaevaluation software with a 1:1 interaction model/global fit.
Background: In SPR one partner is held on a chip, and binding of the other changes the refractive index at the surface.

Test [3] concerns the target T1, recombinant human M-CSF. The test can be described thus: SPR (Biacore), M-CSF amine-coupled on CM5 chip, antibody flowed, 25 C, 1:1 model, n = 5. As to the method: as §1
For test [4], the target named is T1, recombinant human M-CSF. The test can be described thus: SPR (Biacore), M-CSF amine-coupled on CM5 chip, antibody flowed 100 nM to 1.5 nM, 25 C, 1:1 model, n = 5. As to the method: as §1
Test [5] has as its target T1, recombinant human M-CSF. As to the kind of experiment: cell-based or functional assay. The source holds these as a separate data set.
In test [6] the target is T1, recombinant human M-CSF. The test can be described thus: SPR (Biacore), antibody captured on anti-mouse Fc chip, M-CSF flowed, 25 C, 1:1 model. The procedure: Binding properties of the aforementioned antibodies were analyzed using Biacore analyses. […] The aforementioned antibodies were then captured on the anti-mouse Fc/CM5 biosensor chip at 1.5 μg/ml for 3 min at 2 μl/min. MCSF was flowed over the modified biosensor surface at varying concentrations (Rmax ˜15). Test antibodies and antigen were diluted in 0.01 M HEPES pH 7.4, 0.15 M NaCL, 3 mM EDTA, 0.005% Surfactant P20 (HBS-EP). All experiments were performed at 25° C. Kinetic and affinity constants were determined using Biaevaluation software (Biacore) with a 1:1 interaction model/global fit.

The target of test [7] is T1, recombinant human M-CSF. As to the kind of experiment: SPR (Biacore), M-CSF amine-coupled on CM5 chip, antibody or Fab flowed, 25 C, 1:1 model. The procedure: Specifically, M-CSF was immobilized onto CM5 biosensor chip via amine coupling. 0.05 μg/ml M-CSF in 10mM Na Acetate pH 4.0 was injected at 1 μl/min for 5 minutes to achieve RL=6-12 RU. Test antibody (or Fab fragment) were flowed over the modified biosensor surface at varying concentrations. Test antibodies were diluted in 0.01 M HEPES pH 7.4, 0.15 M NaCL, 3 mM EDTA, 0.005% Surfactant P20 (HBS-EP) and all experiments were done at 25° C. Kinetic and affinity constants were determined using Biaevaluation software (Biacore) with a 1:1 interaction model/global fit.

In test [8] the target is T1, recombinant human M-CSF. The test can be described thus: SPR (Biacore), M-CSF amine-coupled on CM5 chip, antibody flowed, 25 C, 1:1 model, n = 21. The procedure: as §1
Test [9] addresses T1, recombinant human M-CSF. The test can be described thus: SPR (Biacore), M-CSF amine-coupled on CM5 chip, antibody flowed 100 nM to 1.5 nM, 25 C, 1:1 model, n = 21. As to the method:
as §1

Test [10] concerns the target T1, recombinant human M-CSF. The test can be described thus: SPR (Biacore), M-CSF amine-coupled on CM5 chip, antibody flowed, 25 C, 1:1 model, n = 2. The procedure: as §1
Test [11] concerns the target T1, recombinant human M-CSF. As to the kind of experiment: SPR (Biacore), M-CSF amine-coupled on CM5 chip, antibody flowed 100 nM to 1.5 nM, 25 C, 1:1 model, n = 2. As to the method: as §1

Numbering of substitutions follows the chain as printed.

B1: heRX1-1.G2 (antibody)
heavy: DVQLQESGPGLVKPSQTLSLTCTVTDYSITSDYAWNWIRQFPGKKLEWMGYISYSGSTSYNPSLKSRITISRDTSKNQFSLQLNSVTAADTATYYCASFDYAHAMDYWGQGTTVTVSS
light: EIVLTQSPGTLSVSPGERVTFSCRASQSIGTSIHWYQQKTGQSPRLLIKYASERISGIPDRFSGSGSGTDFTLTISRVESEDFADYYCQQINSWPTTFGQGTKLEIKRT
notes: The legends may have 45 and 48 exchanged; also called heRX1-1-IgG2; heRX1-1.IgG2; not shown: human Gamma-2 heavy chain constant region; human Kappa light chain constant region (the printed V regions end in EIKRT, which may overlap its start)
Broadly, the Kd is the free concentration of one partner at which half of the binding sites on the other are occupied at equilibrium, for simple one-to-one binding. Usually koff stands for the first-order rate constant of dissociation. In general, kon refers to the second-order rate constant of association. B1: the “IC50 Fold Loss” value with recombinant human M-CSF [1] is 2.8 fold. Further, the “fold decrease in binding affinity compared to the parent murine antibody” value with recombinant human M-CSF [2] was at least 7 fold. Besides, in the test with recombinant human M-CSF [3], the Kd came to 5.9 nM, the dissociation rate constant (koff) was determined as 0.00137 s⁻¹ and the kon was 236000 M⁻¹ s⁻¹. For the same molecule, in the test with recombinant human M-CSF [4], the Kd amounted to 5.9 nM, the koff was 0.00137 s⁻¹ and the kon worked out at 236000 M⁻¹ s⁻¹.

B2: murine monoclonal antibody RX1 (antibody, V domains shown)
VH: B1 heavy with T17S, K44N, T69S, S71T, S80F, A88T, A89E, T113S
VL: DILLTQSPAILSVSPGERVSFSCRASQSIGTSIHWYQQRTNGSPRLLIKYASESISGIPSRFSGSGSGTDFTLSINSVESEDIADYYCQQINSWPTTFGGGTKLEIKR
notes: Intact murine antibody; The hybridoma or commercial RX1 and the recombinant murine RX1 (rRX1, rmRX1) are treated as one molecule; also called Murine RX1; rRX1(mouse)
As to B2, the “EC50 (M-CSF neutralization)” value with recombinant human M-CSF [5] came out at 2 ng/mL. The Kd was 0.16 nM with recombinant human M-CSF [6], 1 nM with recombinant human M-CSF [7], 0.7 nM in the test with recombinant human M-CSF [8] and 0.7 nM in the test with recombinant human M-CSF [9]. Further, the off-rate (koff) with recombinant human M-CSF [6] came out at 0.00027 s⁻¹; in the test with recombinant human M-CSF [7], 0.000235 s⁻¹; with recombinant human M-CSF [8], 0.000156 s⁻¹; with recombinant human M-CSF [9], 0.000156 s⁻¹. Also, the kon turned out to be 1.64e+06 M⁻¹ s⁻¹ with recombinant human M-CSF [6], 234000 M⁻¹ s⁻¹ with recombinant human M-CSF [7], 223000 M⁻¹ s⁻¹ in the test with recombinant human M-CSF [8] and 223000 M⁻¹ s⁻¹ with recombinant human M-CSF [9].

B3: heRX1-10.G2 (antibody, V domains shown)
VH: B1 heavy with D1Q, T25S, K45G, T93V
VL: DIVLTQSPAFLSVTPGEKVTFTCQASQSIGTSIHWYQQKTDQAPKLLIKYASESISGIPSRFSGSGSGTDFTLTISSVEAEDAADYYCQQINSWPTTFGGGTKLEIKR
notes: not shown: human Gamma-2 heavy chain constant region; human Kappa light chain constant region (the V region entry may overlap its start)
For the molecule B3, the “IC50 Fold Loss” value with recombinant human M-CSF [1] stood at 2.2 fold. Besides, in the test with recombinant human M-CSF [2], the “fold decrease in binding affinity compared to the parent murine antibody” value was at least 7 fold. For the same molecule, in the test with recombinant human M-CSF [10], the Kd worked out at 6.3 nM, the koff amounted to 0.0011 s⁻¹ and the association rate constant (kon) was 173000 M⁻¹ s⁻¹. For the same molecule, in the test with recombinant human M-CSF [11], the Kd stood at 6.3 nM, the koff was determined as 0.0011 s⁻¹ and the kon was determined as 173000 M⁻¹ s⁻¹.

The record behind these values is patent US20170152311A1 (published 2017).
